Source: patent publication US20140087995A1 (published 2014)
Numbered stars: 1 amine (or outer) side, 2 acyl side, 3 side chain; on linkers, the order of the positions; unused ones are H or OH. Bridge positions count the residues as written; N and C are the ends. Side chains are listed from the residue outwards. Ends that are not written are not given here. * marks the point of attachment. C20 diacid = O=C(O)CCCCCCCCCCCCCCCCCCC(=O)*; γGlu = O=C(O)[C@H](CCC(=O)[*:2])N[*:1]; AEEA = NCCOCCOCC(=O)O

Experiments:
[1] = molecular target: T1, human amylin receptor (amylin 3(a) receptor: human calcitonin receptor coexpressed with RAMP-3) (human, UniProt P30988 25-474; O60896 24-148); experiment: cell-based or functional assay
T1 sequence (looked up) 1: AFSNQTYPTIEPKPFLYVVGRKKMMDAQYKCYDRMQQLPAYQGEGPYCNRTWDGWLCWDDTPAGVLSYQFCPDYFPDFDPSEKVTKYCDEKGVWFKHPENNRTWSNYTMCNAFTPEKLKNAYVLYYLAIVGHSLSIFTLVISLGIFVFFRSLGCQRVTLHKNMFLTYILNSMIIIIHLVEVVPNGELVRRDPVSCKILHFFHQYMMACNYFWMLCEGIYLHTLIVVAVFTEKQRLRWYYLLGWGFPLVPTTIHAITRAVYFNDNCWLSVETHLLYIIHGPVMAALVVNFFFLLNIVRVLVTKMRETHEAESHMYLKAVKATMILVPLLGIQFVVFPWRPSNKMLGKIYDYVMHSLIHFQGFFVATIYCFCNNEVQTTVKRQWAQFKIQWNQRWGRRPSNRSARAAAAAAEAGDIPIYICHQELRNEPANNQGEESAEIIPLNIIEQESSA
T1 sequence (looked up) 2: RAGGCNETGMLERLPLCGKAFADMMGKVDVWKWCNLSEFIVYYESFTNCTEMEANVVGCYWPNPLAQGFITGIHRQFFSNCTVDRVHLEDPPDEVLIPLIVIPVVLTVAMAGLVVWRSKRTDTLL

[2] = molecular target: T2, human calcitonin receptor (human, UniProt P30988 25-474); experiment: cell-based or functional assay
T2 sequence (looked up): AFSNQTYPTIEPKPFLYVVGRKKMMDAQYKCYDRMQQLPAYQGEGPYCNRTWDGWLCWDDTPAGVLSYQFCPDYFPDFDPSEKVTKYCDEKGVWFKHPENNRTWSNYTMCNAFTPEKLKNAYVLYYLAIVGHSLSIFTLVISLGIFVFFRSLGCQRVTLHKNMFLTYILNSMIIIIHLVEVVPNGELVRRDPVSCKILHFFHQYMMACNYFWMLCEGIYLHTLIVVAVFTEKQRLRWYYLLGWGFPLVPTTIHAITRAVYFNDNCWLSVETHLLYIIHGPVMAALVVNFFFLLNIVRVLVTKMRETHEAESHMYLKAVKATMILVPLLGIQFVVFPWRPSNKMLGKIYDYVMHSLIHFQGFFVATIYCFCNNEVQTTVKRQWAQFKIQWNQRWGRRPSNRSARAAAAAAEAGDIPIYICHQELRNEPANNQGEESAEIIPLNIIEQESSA

Binder | hAmylin-R funct. EC50 (pM) [1] | Ratio hCT/hAmylin funct. [2] | hCTR funct. EC50 (pM) [2]
K([AEEA-AEEA-γGlu-C20 diacid])CNTATCATQRLANFLRHSSPNFGAIPSSTNVGPNTY-NH2 (disulfide 2-7; N-terminus assumed; SMILES CC[C@H](C)[C@H](NC(=O)[C@H](C)NC(=O)CNC(=O)[C@H](Cc1ccccc1)NC(=O)[C@H](CC(N)=O)NC(=O)[C@@H]1CCCN1C(=O)[C@H](CO)NC(=O)[C@H](CO)NC(=O)[C@H](Cc1c[nH]cn1)NC(=O)[C@H](CCCNC(=N)N)NC(=O)[C@H](CC(C)C)NC(=O)[C@H](Cc1ccccc1)NC(=O)[C@H](CC(N)=O)NC(=O)[C@H](C)NC(=O)[C@H](CC(C)C)NC(=O)[C@H](CCCNC(=N)N)NC(=O)[C@H](CCC(N)=O)NC(=O)[C@@H](NC(=O)[C@H](C)NC(=O)[C@@H]1CSSC[C@H](NC(=O)[C@@H](N)CCCCNC(=O)COCCOCCNC(=O)COCCOCCNC(=O)CC[C@H](NC(=O)CCCCCCCCCCCCCCCCCCC(=O)O)C(=O)O)C(=O)N[C@@H](CC(N)=O)C(=O)N[C@@H]([C@@H](C)O)C(=O)N[C@@H](C)C(=O)N[C@@H]([C@@H](C)O)C(=O)N1)[C@@H](C)O)C(=O)N1CCC[C@H]1C(=O)N[C@@H](CO)C(=O)N[C@@H](CO)C(=O)N[C@H](C(=O)N[C@@H](CC(N)=O)C(=O)N[C@H](C(=O)NCC(=O)N1CCC[C@H]1C(=O)N[C@@H](CC(N)=O)C(=O)N[C@H](C(=O)N[C@@H](Cc1ccc(O)cc1)C(N)=O)[C@@H](C)O)C(C)C)[C@@H](C)O, also called compound 98) | 84 pM | 19.5 | 1630 pM
K([γGlu-C20 diacid])CNTATCATQRLARFLRHSSPNFGAIPSSTNVGSNTY-NH2 (disulfide 2-7; N-terminus assumed; SMILES CC[C@H](C)[C@H](NC(=O)[C@H](C)NC(=O)CNC(=O)[C@H](Cc1ccccc1)NC(=O)[C@H](CC(N)=O)NC(=O)[C@@H]1CCCN1C(=O)[C@H](CO)NC(=O)[C@H](CO)NC(=O)[C@H](Cc1c[nH]cn1)NC(=O)[C@H](CCCNC(=N)N)NC(=O)[C@H](CC(C)C)NC(=O)[C@H](Cc1ccccc1)NC(=O)[C@H](CCCNC(=N)N)NC(=O)[C@H](C)NC(=O)[C@H](CC(C)C)NC(=O)[C@H](CCCNC(=N)N)NC(=O)[C@H](CCC(N)=O)NC(=O)[C@@H](NC(=O)[C@H](C)NC(=O)[C@@H]1CSSC[C@H](NC(=O)[C@@H](N)CCCCNC(=O)CC[C@H](NC(=O)CCCCCCCCCCCCCCCCCCC(=O)O)C(=O)O)C(=O)N[C@@H](CC(N)=O)C(=O)N[C@@H]([C@@H](C)O)C(=O)N[C@@H](C)C(=O)N[C@@H]([C@@H](C)O)C(=O)N1)[C@@H](C)O)C(=O)N1CCC[C@H]1C(=O)N[C@@H](CO)C(=O)N[C@@H](CO)C(=O)N[C@H](C(=O)N[C@@H](CC(N)=O)C(=O)N[C@H](C(=O)NCC(=O)N[C@@H](CO)C(=O)N[C@@H](CC(N)=O)C(=O)N[C@H](C(=O)N[C@@H](Cc1ccc(O)cc1)C(N)=O)[C@@H](C)O)C(C)C)[C@@H](C)O, also called compound 83) [N^ε1-[(4S)-4-carboxy-4-(19-carboxynonadecanoylamino)butanoyl]-[Arg14,Arg17,Pro21,Pro27]-h-amylin] | 405 pM | – | 16800 pM
K([AEEA-γGlu-C20 diacid])CNTATCATQRLAHFLRHSSPNFGAIPSSTNVGHNTY-NH2 (disulfide 2-7; N-terminus assumed; SMILES CC[C@H](C)[C@H](NC(=O)[C@H](C)NC(=O)CNC(=O)[C@H](Cc1ccccc1)NC(=O)[C@H](CC(N)=O)NC(=O)[C@@H]1CCCN1C(=O)[C@H](CO)NC(=O)[C@H](CO)NC(=O)[C@H](Cc1c[nH]cn1)NC(=O)[C@H](CCCNC(=N)N)NC(=O)[C@H](CC(C)C)NC(=O)[C@H](Cc1ccccc1)NC(=O)[C@H](Cc1c[nH]cn1)NC(=O)[C@H](C)NC(=O)[C@H](CC(C)C)NC(=O)[C@H](CCCNC(=N)N)NC(=O)[C@H](CCC(N)=O)NC(=O)[C@@H](NC(=O)[C@H](C)NC(=O)[C@@H]1CSSC[C@H](NC(=O)[C@@H](N)CCCCNC(=O)COCCOCCNC(=O)CC[C@H](NC(=O)CCCCCCCCCCCCCCCCCCC(=O)O)C(=O)O)C(=O)N[C@@H](CC(N)=O)C(=O)N[C@@H]([C@@H](C)O)C(=O)N[C@@H](C)C(=O)N[C@@H]([C@@H](C)O)C(=O)N1)[C@@H](C)O)C(=O)N1CCC[C@H]1C(=O)N[C@@H](CO)C(=O)N[C@@H](CO)C(=O)N[C@H](C(=O)N[C@@H](CC(N)=O)C(=O)N[C@H](C(=O)NCC(=O)N[C@@H](Cc1c[nH]cn1)C(=O)N[C@@H](CC(N)=O)C(=O)N[C@H](C(=O)N[C@@H](Cc1ccc(O)cc1)C(N)=O)[C@@H](C)O)C(C)C)[C@@H](C)O, also called compound 80) | 139 pM | 15.4 | 2140 pM
K([AEEA-γGlu-C20 diacid])CNTATCATQRLARFLRHSSPNFGAIPSSTNVGSNTY-NH2 (disulfide 2-7; N-terminus assumed; SMILES CC[C@H](C)[C@H](NC(=O)[C@H](C)NC(=O)CNC(=O)[C@H](Cc1ccccc1)NC(=O)[C@H](CC(N)=O)NC(=O)[C@@H]1CCCN1C(=O)[C@H](CO)NC(=O)[C@H](CO)NC(=O)[C@H](Cc1c[nH]cn1)NC(=O)[C@H](CCCNC(=N)N)NC(=O)[C@H](CC(C)C)NC(=O)[C@H](Cc1ccccc1)NC(=O)[C@H](CCCNC(=N)N)NC(=O)[C@H](C)NC(=O)[C@H](CC(C)C)NC(=O)[C@H](CCCNC(=N)N)NC(=O)[C@H](CCC(N)=O)NC(=O)[C@@H](NC(=O)[C@H](C)NC(=O)[C@@H]1CSSC[C@H](NC(=O)[C@@H](N)CCCCNC(=O)COCCOCCNC(=O)CC[C@H](NC(=O)CCCCCCCCCCCCCCCCCCC(=O)O)C(=O)O)C(=O)N[C@@H](CC(N)=O)C(=O)N[C@@H]([C@@H](C)O)C(=O)N[C@@H](C)C(=O)N[C@@H]([C@@H](C)O)C(=O)N1)[C@@H](C)O)C(=O)N1CCC[C@H]1C(=O)N[C@@H](CO)C(=O)N[C@@H](CO)C(=O)N[C@H](C(=O)N[C@@H](CC(N)=O)C(=O)N[C@H](C(=O)NCC(=O)N[C@@H](CO)C(=O)N[C@@H](CC(N)=O)C(=O)N[C@H](C(=O)N[C@@H](Cc1ccc(O)cc1)C(N)=O)[C@@H](C)O)C(C)C)[C@@H](C)O, also called compound 82) | 215 pM | – | 12700 pM
K([AEEA-γGlu-C20 diacid])CNTATCATQRLANFLRHSSPNFGAIPSSTNVGRNTY-NH2 (disulfide 2-7; N-terminus assumed; SMILES CC[C@H](C)[C@H](NC(=O)[C@H](C)NC(=O)CNC(=O)[C@H](Cc1ccccc1)NC(=O)[C@H](CC(N)=O)NC(=O)[C@@H]1CCCN1C(=O)[C@H](CO)NC(=O)[C@H](CO)NC(=O)[C@H](Cc1c[nH]cn1)NC(=O)[C@H](CCCNC(=N)N)NC(=O)[C@H](CC(C)C)NC(=O)[C@H](Cc1ccccc1)NC(=O)[C@H](CC(N)=O)NC(=O)[C@H](C)NC(=O)[C@H](CC(C)C)NC(=O)[C@H](CCCNC(=N)N)NC(=O)[C@H](CCC(N)=O)NC(=O)[C@@H](NC(=O)[C@H](C)NC(=O)[C@@H]1CSSC[C@H](NC(=O)[C@@H](N)CCCCNC(=O)COCCOCCNC(=O)CC[C@H](NC(=O)CCCCCCCCCCCCCCCCCCC(=O)O)C(=O)O)C(=O)N[C@@H](CC(N)=O)C(=O)N[C@@H]([C@@H](C)O)C(=O)N[C@@H](C)C(=O)N[C@@H]([C@@H](C)O)C(=O)N1)[C@@H](C)O)C(=O)N1CCC[C@H]1C(=O)N[C@@H](CO)C(=O)N[C@@H](CO)C(=O)N[C@H](C(=O)N[C@@H](CC(N)=O)C(=O)N[C@H](C(=O)NCC(=O)N[C@@H](CCCNC(=N)N)C(=O)N[C@@H](CC(N)=O)C(=O)N[C@H](C(=O)N[C@@H](Cc1ccc(O)cc1)C(N)=O)[C@@H](C)O)C(C)C)[C@@H](C)O, also called compound 78) | 316 pM | – | 8160 pM
K([AEEA-γGlu-C20 diacid])CNTATCATQRLAHFLRHSSPNFGAIPSSTNVGRNTY-NH2 (disulfide 2-7; N-terminus assumed; SMILES CC[C@H](C)[C@H](NC(=O)[C@H](C)NC(=O)CNC(=O)[C@H](Cc1ccccc1)NC(=O)[C@H](CC(N)=O)NC(=O)[C@@H]1CCCN1C(=O)[C@H](CO)NC(=O)[C@H](CO)NC(=O)[C@H](Cc1c[nH]cn1)NC(=O)[C@H](CCCNC(=N)N)NC(=O)[C@H](CC(C)C)NC(=O)[C@H](Cc1ccccc1)NC(=O)[C@H](Cc1c[nH]cn1)NC(=O)[C@H](C)NC(=O)[C@H](CC(C)C)NC(=O)[C@H](CCCNC(=N)N)NC(=O)[C@H](CCC(N)=O)NC(=O)[C@@H](NC(=O)[C@H](C)NC(=O)[C@@H]1CSSC[C@H](NC(=O)[C@@H](N)CCCCNC(=O)COCCOCCNC(=O)CC[C@H](NC(=O)CCCCCCCCCCCCCCCCCCC(=O)O)C(=O)O)C(=O)N[C@@H](CC(N)=O)C(=O)N[C@@H]([C@@H](C)O)C(=O)N[C@@H](C)C(=O)N[C@@H]([C@@H](C)O)C(=O)N1)[C@@H](C)O)C(=O)N1CCC[C@H]1C(=O)N[C@@H](CO)C(=O)N[C@@H](CO)C(=O)N[C@H](C(=O)N[C@@H](CC(N)=O)C(=O)N[C@H](C(=O)NCC(=O)N[C@@H](CCCNC(=N)N)C(=O)N[C@@H](CC(N)=O)C(=O)N[C@H](C(=O)N[C@@H](Cc1ccc(O)cc1)C(N)=O)[C@@H](C)O)C(C)C)[C@@H](C)O, also called compound 84) | 169 pM | – | 5490 pM
